In patent US20230312753A1 (IMMUNORIZON, published 2023):
Changes are numbered by the printed parent chain.

T1: NKG2D on cells (UniProt P26718 1-216, limits assumed)
T1 construct: whole, on cells
T1 sequence (looked up): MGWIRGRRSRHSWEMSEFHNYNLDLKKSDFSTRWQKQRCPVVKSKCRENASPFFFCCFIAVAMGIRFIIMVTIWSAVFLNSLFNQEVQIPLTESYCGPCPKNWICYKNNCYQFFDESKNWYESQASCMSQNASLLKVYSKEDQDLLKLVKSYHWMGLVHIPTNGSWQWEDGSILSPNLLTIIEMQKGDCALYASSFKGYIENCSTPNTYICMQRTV

T2: NKG2D-ECD-hFc (human, UniProt P26718 73-216)
T2 construct: extracellular domain; Lot 20200413002, 'provided by CP'; also called hNKG2D-ECD-hFc; not shown: human Fc (hFc)
T2 sequence (looked up): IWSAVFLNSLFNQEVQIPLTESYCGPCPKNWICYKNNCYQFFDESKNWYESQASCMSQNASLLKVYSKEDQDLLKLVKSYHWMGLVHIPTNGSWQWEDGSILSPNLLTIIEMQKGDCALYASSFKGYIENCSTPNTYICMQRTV

B1: IM-1273 bi-NKG2A scFv Tribody, CD3 mutant variant (other)
heavy: GGSGGSEVQLVESGGGLVQPGGSLRLSCAASGFTFNTYAMNWVRQAPGKGLEWVARIGSGGNGYATYYADSVKDRFTISRDDSKNTLYLQMNSLRAEDTAVYYCVRHGNFGASARSWFAYWGQGTMVTVSSASTKGPSVFPLAPSSKSTSGGTAALGCLVKDYFPEPVTVSWNSGALTSGVHTFPAVLQSSGLYSLSSVVTVPSSSLGTQTYICNVNHKPSNTKVDKRVEPKSCPPCGGGGSDIQMTQSPSSLSASVGDRVTITCRASENIYSYLAWYQQKPGKAPKLLIYNAKTLAEGVPSRFSGSGSGTDFTLTISSLQPEDFATYYCQHHYGTPRTFGGGTKVEIKGGGGSGGGGSGGGGSQVQLVQSGAEVKKPGASVKVSCKASGYTFTSYWMNWVRQAPGQGLEWMGRIDPYDSETHYAQKLQGRVTMTTDTSTSTAYMELRSLRSDDTAVYYCARGGYDFDVGTLYWFFDVWGQGTTVTVSSGGGGSDIQMTQSPSSLSASVGDRVTITCRASENIYSYLAWYQQKPGKAPKLLIYNAKTLAEGVPSRFSGSGSGTDFTLTISSLQPEDFATYYCQHHYGTPRTFGGGTKVEIKGGGGSGGGGSGGGGSQVQLVQSGAEVKKPGASVKVSCKASGYTFTSYWMNWVRQAPGQGLEWMGRIDPYDSETHYAQKLQGRVTMTTDTSTSTAYMELRSLRSDDTAVYYCARGGYDFDVGTLYWFFDVWGQGTTVTVSS
light: GGSGGSQAVVTQEPSLTVSPGGTVTLTCRSSTGAVTRGNAANWVQQKPGQAPRGLIGGTNARAPGTPARFSGSLLGGKAALTLSGVQPEDEAEYYCALGYSGLWVFGGGTKLTVLGQPKAAPSVTLFPPSSEELQANKATLVCLISDFYPGAVTVAWKADSSPVKAGVETTTPSKQSNNKYAASSYLSLTPEQWKSHRSYSCQVTHEGSTVEKTVAPTECPPCSGGGSDIQMTQSPSSLSASVGDRVTITCRASQGISNYLAWFQQKPGKAPKSLIYRANRLQSGVPSRFSGSGSGTDFTLTISSLQPEDVATYYCLQYDDFPWTFGQGTKLEIKGGGGSGGGGSGGGGSGGGGSQVQLVQSGAEVKKPGASVKVSCKASGYTFTSFWMHWVRQAPGQGLEWMGRIDPNRGGTEYNEKAKSRVTMTADKSTSTAYMELSSLRSEDTAVYYCAGGNPYYPMDYWGQGTTVTVSS
notes: Two anti-NKG2A scFv in tandem, CD3 arm mutated; also called IM-1273 CD3 mutant variant
B2: IM-1091 Tribody, NKG2D mutant variant (other)
heavy: GGSGGSEVQLVESGGGLVQPGGSLRLSCAASGFTFNTYAMNWVRQAPGKGLEWVARIRSKYNNYATYYADSVKDRFTISRDDSKNTLYLQMNSLRAEDTAVYYCVRHGNFGNSYVSWFAYWGQGTMVTVSSASTKGPSVFPLAPSSKSTSGGTAALGCLVKDYFPEPVTVSWNSGALTSGVHTFPAVLQSSGLYSLSSVVTVPSSSLGTQTYICNVNHKPSNTKVDKRVEPKSCPPCGGGGSQSALTQPASVSGSPGQSITISCSGSSSNIGNNAVNWYQQLPGKAPKLLIYADDLLPSGVSDRFSGSKSGTSAFLAISGLQSEDEADYYCAAWDDSLNGPVFGGGTKLTVLGGGGSGGGGSGGGGSGGGGSQVQLVESGGGLVKPGGSLRLSCAASGFTFSSYGMHWVRQAPGKGLEWVAFIRYDGSNKYYADSVKGRFTISRDNSKNTLYLQMNSLRAEDTAVYYCAKDAGEGDGTYFDYWGQGTTVTVSS
light: B1 light with R37T, G38S, A40Y, A61K, G99W, G102N
notes: CD3/5T4/NKG2D Tribody with mutated anti-NKG2D arm

Tests used:
NKG2A-CD94-ECD-hFc [1] = molecular target: T3, NKG2A-CD94-ECD-hFc (human, UniProt P26715 94-233; Q13241 32-179, limits assumed); assay: ELISA on coated NKG2A-CD94-ECD-hFc (FIG. 43D), reference IM-1062
T3 construct: extracellular domain; Lot 20200724002, 'provided by CP'; the two-chain layout here is only the reading of the name; also called human NKG2A (recombinant); NKG2A antigen; not shown: human Fc (hFc)
T3 sequence (P26715 94-233 limits assumed, chain 1 of 2): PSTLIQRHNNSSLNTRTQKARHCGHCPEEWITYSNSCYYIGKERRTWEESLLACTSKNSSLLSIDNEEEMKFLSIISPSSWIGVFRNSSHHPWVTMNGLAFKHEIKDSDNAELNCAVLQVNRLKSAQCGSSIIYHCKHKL
T3 sequence (Q13241 32-179 limits assumed, chain 2 of 2): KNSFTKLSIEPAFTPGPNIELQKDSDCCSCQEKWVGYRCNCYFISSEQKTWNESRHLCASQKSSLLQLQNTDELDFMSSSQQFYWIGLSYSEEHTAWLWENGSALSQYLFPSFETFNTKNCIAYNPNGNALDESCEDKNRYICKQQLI
Description: (§1) Methods: ELISA binding of Tribody/ProTribody antibody constructs to antigens: Dilute target protein (hCD3epsilon-His (cat # 10977-H08S, supplier Sino Biological); h5T4-His (cat# 19845-H08H, supplier Sino Biological); NKG2A-CD94-ECD-hFc, Lot:20200724002, provided by CP; or NKG2D-ECD-hFc, Lot: 20200413002, provided by CP) into PBS with final concentration of 0.01 µg/mL for hCD3epsilon-His, 0.3 µg/mL for h5T4-His, 1 µg/mL for NKG2A-CD94-ECD-hFc and 0.7 µg/mL for hNKG2D-ECD-hFc respectively and coat 100 µL/well on ELISA plate (cat: 9018, supplier Corning) respectively. Incubate O/N, 4° C. The plates were blocked with 250 µL 1% BSA in PBST for 1 hr at 37° C.Wash 4 times with PBST. All the washes are done using Biotek (Elx 405). All the Tribody set antibodies were diluted to 400 nM and make 4-fold serially dilutions (12 points, including 0 point). Add 100 µL/well diluted antibody constructs solution to plate, incubate for 1 hr at 37° C.Wash 4 times with PBST. Add 100 µL/well anti-human kappa light chain-HRP (1:10000), incubate for 0.5 hr at 37° C. Wash 4 times with PBST. 100 µL/well of TMB substrate was added and incubated at room temperature for 5 min. 100 µL/well of 1N HCl to terminate reaction. Plates were read using ELISA plate reader at 450 nm wavelength (instrunet SpectraMax M5e). […]

[2] = molecular target: T4, NKG2A/CD94 on CHO cells (CHOK1-NKG2A-CD94) (human, UniProt P26715 1-233; Q13241 1-179, limits assumed); assay: FACS on CHO cells over-expressing human NKG2A (FIG. 45F), reference IM-1062
T4 construct: whole, on cells; also called CHO cells over-expressing NKG2A/CD94; CHO cell line over expressing ectopic NKG2A
T4 sequence (P26715 whole entry, chain 1 of 2): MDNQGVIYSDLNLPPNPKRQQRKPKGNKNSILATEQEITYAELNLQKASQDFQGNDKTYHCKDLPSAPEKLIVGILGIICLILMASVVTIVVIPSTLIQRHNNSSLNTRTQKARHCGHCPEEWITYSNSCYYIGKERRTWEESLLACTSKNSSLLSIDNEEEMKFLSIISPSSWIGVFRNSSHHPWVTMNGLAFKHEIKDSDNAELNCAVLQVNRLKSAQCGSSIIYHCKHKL
T4 sequence (Q13241 whole entry, chain 2 of 2): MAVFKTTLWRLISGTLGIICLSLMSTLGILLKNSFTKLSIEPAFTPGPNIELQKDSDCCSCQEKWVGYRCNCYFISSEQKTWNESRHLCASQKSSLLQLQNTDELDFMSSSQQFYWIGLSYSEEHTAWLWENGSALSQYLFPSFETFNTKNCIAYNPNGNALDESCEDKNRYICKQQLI
Description: Suspension cultured cells was harvested directly, and adherent cell were digested using TrypLE Express Enzyme (cat: 12604-013, supplier Life technologies). Centrifuge at 1000 rpm for 5 min and discard the supernatant. Cells are suspended at a concentration of 2×10⁶/mL in FACS buffer (2% FBS in PBS) and add 100 µL/well of cell suspension to the plate (cat #3799, supplier Corning). Centrifuging the plates at 2000 rpm for 5 min and discard the supernatant. Re-suspend the cells in 100 µL/well of Tribody set antibodies (400 nM start, 4-fold dilution, 8 point including 0 point) and incubate the plate for 60 min at 4° C. Centrifuge the plate at 2000 rpm, 4° C. for 5 min and discard supernatant. Then wash the cells 3 times with 170 µL FACS buffer. Re-suspend the cells at 100 µL/well with secondary antibody (goat anti-human Ig Fab-FITC, Cat # 2085-02, Southern biotech) with 1:400 dilution and incubate the plate for 30 min at 4° C. in dark. Centrifuge the plate at 2000 rpm, 4° C. for 5 min and discard supernatant. […] The fluorescence intensity of the staining was measured using flow cytometer (BD, FACSVerse). The geometric mean fluorescence intensity (GMFI; median fluorescence intensity (MFI)) of set antibodies staining was calculated (BD FACSuite software). Dose-response curves were generated and EC50s for thetrispecific variants binding were calculated using GraphPad Prism software.

[3] = molecular target: T4, NKG2A/CD94 on CHO cells …; assay: FACS on CHO cells over-expressing human NKG2A (FIG. 45F)
Description: Then wash the cells 3 times with 170 µL FACS buffer. Re-suspend the cells at 100 µL/well with secondary antibody (goat anti-human Ig Fab-FITC, Cat # 2085-02, Southern biotech) with 1:400 dilution and incubate the plate for 30 min at 4° C. in dark. Centrifuge the plate at 2000 rpm, 4° C. for 5 min and discard supernatant. Then wash the cells 3 times with FACS buffer and analyze the sample with FACS verse. The fluorescence intensity of the staining was measured using flow cytometer (BD, FACSVerse). The geometric mean fluorescence intensity (GMFI; median fluorescence intensity (MFI)) of set antibodies staining was calculated (BD FACSuite software). Dose-response curves were generated and EC50s for thetrispecific variants binding were calculated using GraphPad Prism software.
Results: The expressed trispecific constructs were analyzed for their binding to cells expressing endogenous CD3ε, 5T4 and NKG2A/NKG2D. […] (FIG. 45F).

NKG2A-CD94-ECD-hFc [4] = molecular target: T3, NKG2A-CD94-ECD-hFc; assay: ELISA on coated NKG2A-CD94-ECD-hFc (FIG. 43D)
Description: Methods: ELISA binding of Tribody/ProTribody antibody constructs to antigens: Dilute target protein (hCD3epsilon-His (cat # 10977-H08S, supplier Sino Biological); h5T4-His (cat# 19845-H08H, supplier Sino Biological); NKG2A-CD94-ECD-hFc, Lot:20200724002, provided by CP; or NKG2D-ECD-hFc, Lot: 20200413002, provided by CP) into PBS with final concentration of 0.01 µg/mL for hCD3epsilon-His, 0.3 µg/mL for h5T4-His, 1 µg/mL for NKG2A-CD94-ECD-hFc and 0.7 µg/mL for hNKG2D-ECD-hFc respectively and coat 100 µL/well on ELISA plate (cat: 9018, supplier Corning) respectively. Incubate O/N, 4° C. The plates were blocked with 250 µL 1% BSA in PBST for 1 hr at 37° C.Wash 4 times with PBST. All the washes are done using Biotek (Elx 405). All the Tribody set antibodies were diluted to 400 nM and make 4-fold serially dilutions (12 points, including 0 point). Add 100 µL/well diluted antibody constructs solution to plate, incubate for 1 hr at 37° C.Wash 4 times with PBST. Add 100 µL/well anti-human kappa light chain-HRP (1:10000), incubate for 0.5 hr at 37° C. Wash 4 times with PBST. 100 µL/well of TMB substrate was added and incubated at room temperature for 5 min. 100 µL/well of 1N HCl to terminate reaction. Plates were read using ELISA plate reader at 450 nm wavelength (instrunet SpectraMax M5e). Data Analysis was performed using Graphpad prism 5 software by using nonlinear regression (curve fit): log (agonist) vs. response, agonist is antibody concentration (nM) and response is OD value.

NKG2D on cells = molecular target: T1, NKG2D on cells; assay: FACS, data not shown
NKG2D-ECD-hFc = molecular target: T2, NKG2D-ECD-hFc; assay: ELISA, data not shown
Description: as §1

Binder | fold improved binding affinity against IM-1062 (NKG2A-CD94-ECD-hFc [1]) [fold] | fold improved binding affinity against IM-1062 [2] [fold] | EC50 [3] [nM] | EC50 (NKG2A-CD94-ECD-hFc [4]) [nM] | binding result (NKG2D on cells) | binding result (NKG2D-ECD-hFc)
B1 | ~60 | ~80 | 0.2 | 0.1 | – | –
B2 | – | – | – | – | no binding | no binding
